Ends that are not written are not given here.
Target: the molecule itself
Assay: analytical ultracentrifugation; self-association of the peptide

B1: Construct 12 (AP6) (peptide)
peptide: CGGGEIWKQHEEALKKLFAFHFILPFIIMAIAMVHLLFLFGEGL
modifications: also: acetylated (position not given here)
notes: Designed amphiphilic helical peptide made by solid-phase synthesis; Heme cofactors may have been present; also called amphiphilic construct AP6
binding result: binds

From patent publication US20120065133A1 (University of Pennsylvania, published 2012)
